Data as given in publication PMC6983136.

Test system: NC(=O)N[C@H]1NC(=O)NC1=O
Test: purified protein
Details: free enzyme, 70 nM monomer, 20 mM potassium phosphate, pH 7.4, 37 °C, racemic allantoin added, table states (S)-allantoin, unclear whether concentration counts racemate or S form

Q: What does the source list for “puuE (allantoinase from Pseudomonas fluorescens) (Pseudomonas fluorescens Pf0-1)”?
A: Km: 1350 ± 430 µM; kcat: 102 s⁻¹; kcat/Km: 75200 M⁻¹ s⁻¹
